Results taken from a protein production outcome set (Wang et al. 2014).

assay: label from the status in PepcDB records

| Sequence | protein production |
| --- | --- |
| MKPLHLKLNNFGPFLKEEIDFSKIDNNELFLISGKTGSGKTMIFDAMTYALFGKASTEQREENDLRSHFADGKQPMSVTFEFQLNHRIYKVHRQGPYIKEGNTTKTNAKFDVFEMVDGKYEIRESKVISGTQFIIELLGVNADQFRQLFILPQGEFKRFLISNSREKQGILRTLFDSEKFEAIREILKEELKKEKAQIENRYQQIDLLWQEIESFDDDKIKGLLELAT | failed |
| MKPLKEVVGAYLALSDAQRQLVAGEYDEAAANCRRAMEISHTMPPEEAFDHAGFDAFCHAGLAEALAGLRSFDEALHSADKALHYFNRRGELNQDEGKLWISAVYSRALALDGLGRGAEAMPEFKKVVEMIEERKGETPGKERMMEVAIDRIAQLGAS | not failed |
| MKPSLRIYRYPPPPSQRTPCALTIGNFDGVHLGHQAILARVRQEARARGLVPAVMTFEPHPREYFATLNRRPELAPTRISGLRDKLQALAAAGIEQVAVERFDARLAEMSANAFIEDLLVAGLQTRWLLVGEDFRYGHKRSGDIDLLREAGLAHGFEVCTLADITDRQGHRISSSEVRTALAVGDLDRAAQLLGQPFHISGHVIHGRKLGRELGFPTMNLRVAPRCATRSGIYVVRVLGLQDRPLPAVASLGVRPTVEDRGRVLLEAHLLDESLDAYGKLVRVEFLHKLRDEEKFADLPSLTAAIAQDAQNARAYFAVHGL | failed |
| MKPSVSITGEQEAHKVAAIFETETDANGVARVLSQETSLDHEQVIVVSPQDQHPGEELEPENQGIWQTLVRSHLWLGIGGAVAGFIVFLILSAIGVGFIAQNGVVAAAVLAALGLILGLLVAGGVTLRPDHTPYVAKAQSALKEGKYVLTVHASSSEQLKEATTVLKNRNVRLVRTI | failed |
| MKPVKPPRINGRVPVLSAQEAVNYIPDEATLCVLGAGGGILEATTLITALADKYKQTQTPRNLSIISPTGLGDRADRGISPLAQEGLVKWALCGHWGQSPRISDLAEQNKIIAYNYPQGVLTQTLRAAAAHQPGIISDIGIGTFVDPRQQGGKLNEVTKEDLIKLVEFDNKEYLYYKAIAPDIAFIRATTCDSEGYATFEDEVMYLDALVIAQAVHNNGGIVMMQVQKMVKKATLHPKSVRIPGYLVDIVVVDPDQSQLYGGAPVNRFISGDFTLDDSTKLSLPLNQRKLVARRALFEMRKGAVGNVGVGIADGIGLVAREEGCADDFILTVETGPIGGITSQGIAFGANVNTRAILDMTSQFDFYHGGGLDVCYLSFAEVDQHGNVGVHKFNGKIMGTGGFIDISATSKKIIFCGTLTAGSLKTEIADGKLNIVQEGRVKKFIRELPEITFSGKIALERGLDVRYITERAVFTLKEDGLHLIEIAPGVDLQKDILDKMDFTPVISPELKLMDERLFIDAAMGFVLPEAAH | not failed |
| MKPVKVGICGLGTVGGGTFNVLERNAEEIARRAGRGIEVAQIAARRPNPKCDTGATPITADIFDVACNPEIDVVVELIGGYTLAHELVLKAIENGKHVVTANKALIAVHGNEIFAKAREKGVIVAFEAAVAGGIPVIKAIREGLSANRINWLAGIINGTGNFILSEMREKGRTFPDVLAEAQALGYAEADPTFDVEGIDAAHKLTILASIAFGIPLQFDKAYTEGISKLTSADVNYADALGYRIKHLGVARRTESGFELRVHPTLIPSDRLIANVNGVMNAVMVNGDAVGSTLYYGAGAGMEPTASSVVADLVDVVRAMTSDPENRVPHLAFQPDALSDHPILPIEACESAYYLRIQAKDHPGVLAQVATILSERGINIESIMQKEAEEQDGLVPMILVTHRVIEQRINDAIAALEALEGVSGPVVRIRVEQL | not failed |
| MKQESPRLENTTPVEEKMTRSLLDHLTRLKPTRLVIFTSVFLSCLLLSLGFVFLQPATYQSYATLLTVAKTAIDQASREADIQHVAIQKQVLLGSELLTETADRLRKGDDAEAGINLTHAAIRDMLDVRPVDDTNLVEMVAEGNEPGLLPRLINTWIDVYLDARSAEIARSKGSTVEMMQEELVALTEKIQQKRLELEQFRQHNEIVSTERQDNEALARLKGLTDSLNKASEEEVKAKARLDTIRKSIERGQIVVPNEDTRTLSALERRAQELREQLEELDRQYTREYMALSPDLKVIPDKLRALEDEIQHIRRKGQTVVVSDAEQEYAAARQATRSIQEQLDQHRKKAAEFTARFTEHDALKSDLEELEQLYRDTQARLAQIEAQHTGKYPYVDVIERAFLPHHPIGPDYLWNAMIATLASLLLGLTAIWILEFLMHKEQEKLAIHLSGIHLHNQDNLPHSAFDVLPSTSVNLPRQPAQALEHTSMNGLTPQQIATLFQTANIREKQLLLLLLSGLTPDEITHLQQDDIDLEHNSLTVRSVPARTIPLHPVLAALYGKYGHCLTDPAGNRLNQEELEALLICLQIDADLSADNQISAEILRQTYILYLVRQGIRLGDLESVTGYISPTELSGYGTYAPAGTRYPVESVNLFYPIDYKQDV | failed |
| MKQIRLLAQYYVDLMMKLGLVRFSMLLALALVVLAIVVQMAVTMVLHGQVESIDVIRSIFFGLLITPWAVYFLSVVVEQLEESRQRLSRLVQKLEEMRERDLSLNVQLKDNIAQL | not failed |
| MKQKFSSLFVLLVLLLTGLQVSAQSTPKPFDIEQPSLRVFLPAPELATGRAVVACPGGGYSGLAVNHEGYDWAPYFNKQGIALIVLKYRMPKGDRTLPISDAEAAMKMVRDSADVWNLNPNDIGIMGSSAGGHLASTIATHAPEALRPNFQILFYPVITMDKSFTHMGSHDNLLGKDASADLEKEFSNEKQVTKETPRAFIVYSDDDKVVPPANGVNYYLALNKKGVPSVLHIYPTGGHGWGIREDFLYKSEMQNELTSWLRSFKAPRKDAVRVACIGNSITFGAGIRNRSRDSYPSVLARMLGDSYWVKNFGVSARTMLNKGDHPYMNEPAYKNALAFNPNIVVIKLGTNDSKSFNWKYKADFMKDAQTMIDAFKGLPSQPKIYLCYPSKAYLTGDGINDDIISKEIIPMIKKLAKKNDLSVIDLHTAMDGMPELFPDRIHPNEKGAQVMAKAVYQSISTLK | failed |
| MKQKLVVMIAAVLILALTVSIASAEDQNDQTSLRSEQNDAFVAGDNLIDSSSVIKYGDPIGSYKNVTAYSNKGNGKYQCVEYVKRFYKEAMNVEPDWDGTGNAITYYTNAEAKGLVSYSNNGSVAPKPDDIIIFSPTDNGYGHVAIITEVGDKYIKIIEQNWNQENAFASLSLEKNGSKYYISPRGASKRPTEGWCRTPILNIISPTKKSFSLVGNYNNPNLLTVDAEVKSENVPITGLNKDNFTIEIGSKKVNDVTVSDVGEGKYKLSFNPPKQDSNGNYDLNVYVKYKKVTLSDSELNAVRYGEDNANANANVMLVIDRSGSMSGSPISSAKNSANLFIDYMEAEDMAGVVSFSSSARYDYHLATLTPEVKNSIKQKINSIYASGVTAIGSGMRYGLNDLLNYGDPNNPWAIVLLSDGYQNSGENPNNVIPSIKASNIQVYTVGLGPAVDQKLLGNIADQTGGKYYYSPTDSQLQEIYNDIVGKIIGWKTVFKRNVKMFIHERVPIAVPIDSAIDKVSFGIGWPGSNVDLVLYKPDGTLVDPSFADSDPTIEYLSGPTYKIYKVTDPESGMWNMELNATDMPAGGEDVYVTVLAESTLSMSLSTNKGQYNQGEVVKIIADLSDAGTQITGADVKVNVTLPDSSVEYLTLYDDGGHGDNGSQDGVYANYLVDTSLMGDYKVDVTSTGSLSDGSQFKRIEDTSFEIIQGISSISSIANLQSTNDITWINWTWTNPTGPNFSHTEIYLDGVFQANTSAEFFNATGLEPETEYTLSTHTVDISGNVNETWVNSTATTSAELVSDVKKPVIDSVNLFPANTTAGATINLSINATDDTAVTEVIAGDIQLIKTDDIWQGSITAPSSIGSYSLLIKAKDAAGNVAEASVPYRVVQLSGGANIAVSPRSSSIVAGNSVTLNIKVKNTQNIDDIFKVNITVSELPAANQANIDWFSWTEQSVKLRAGEEILLPLEVEVPDGTALGLKLFRANVNSETSVVTGFDTGYLKVV | failed |
| MKQKQFYFIYVFLLSMTFLGACSKDSPNELIPNTIVKIEIDKLPGKRIYFIGEELDVSDMTLKVFYSNETSEIVPVKKDEVTGFNSTVPENDQILEVHKGSFTVTFKIQVLINDIQAISIKTLPSKTVYTLGEPLSLSNMVLEINYADGTIKENSAPSADWVQGFNSSVPAQLQIVTLELDGKQVSFDVQILPVKVDGDKVVSVIDSDFTSITFPDGIRTIGSKAFENKNIKASELLCPASLSTIEQAAFAYCRNLKIVDLSHTSIKELPEEAFLFSGIKKIALPASLEIVGKEAFYGCTDLNVIDISHTSVKELQNGAFGKSGISSISLPSTFKIVGASAFIETKNLKELTLPEGSEVIDLEAFSGSSIQKVTLPNTIYHIDRSFYSCPELTTIETYGTRTTPSPVDRTAAIVSECFNHSPKLTVLKIPASIVKIGISALNKCQVKTLILPASVKALDFNAFGNAVSLDEISLMSPTMVTADYYPVPPGIQKIRVPQNLVETYKQNKAWKPFAEKIVAL | failed |
| MKQKRLTFLLLLISNLFCASAQKWYKPEIDLKVEELLSQMTVEEKLGYIGGIDWMYTKSIDRLGIHRMRMSDGPQGIGTKGKSTAYPATVTLAATWNENLAYQYGKALGRDCRARNINVILGPAVNIYRAPMCGRNFEYMGEDPYLTSRICVGYIKGVQDQGVMATVKHFVANNSDYDRNNISNDIDERTLNEIYFPAYKAAIQEAEVGAIMTSYNLMNGIYTTENPWLLKEVLRNQWGFKGLVMSDWGSTHYCVPAARSGLDLEMAGGEKMNPKDMAYYLKTGDVTMDMVDEKVRHILRILIAFGFKDGTEADKSIALDDPQSVETA | failed |
| MKQLLEFIPLILFFAVYKLVGVQAAAITLVLATILQLILVRILFKKLETSQWIVGLSVIIFGILTAYFDDLAFLKWKVTIINGLFAAVLLISQYVFHKPVVKMLLAKELSLPTQVWNRLNLGWAIFFIICMLINIIISQLFSDDTWATFKTFGFTGLSLVAVIITGIYLYPYIKKLENNNEQK | failed |
| MKQLTILGSTGSIGNSTLSVVRANPELFKVTALVAGRNVREMAQQCLEFSPRYAAMSDEHSAKSLRLLLAEQGSDTEVYSGETAACELAALDDVDQVMAAIVGIAGLPSTLAAIRAGKQVLLANKESLITCGKLFMDEVKRSRAQLLPIDSEHNAIFQSLPERIQRQLGYSSLNENGVSRIILTGSGGPFRETPLSQFSDVTPDQACAHPNWSMGRKISVDSATMMNKGLEYIEARWLFNASAEQIEVVLHPQSVIHSMVRYHDGSILAQMGTPDMRTPIAHAMAYPMRVSSGVAPLDFCKVGALTFTTPDYQRYPCLKLAIDACNAGQAATTALNAANEISVMAFLDSKIRFTDIEVINRTVVEGLLLSEPTSVEEVLVIDRKARDVAAQVIAKLNN | not failed |
| MKQMSITLIFIMAFTIIIHAVETSSYSIRLAGVRLKKIAVALSVVGMVLLISRTSNLLQAFLIGGIVDEAKLDSSIDLEHIIRLVLLSASIGTLLAIILYPTLTKLFGYVIQNFETDGSFIRMMKTNNIQKLKYTKKYVRFPKLEMIHRLRIGGIPKRIMLINMFATAIYTAGVLSALYASFLNPDYATNASTASGLVNGFATILLTVLLDPRIALLTERALQSENGAESMSKMYGWLMISRLFGTLLAQLLFVPGAYWILWIIELIH | failed |
| MKQNQQNKKSFEVQLTQLFLFTSLPLFFLLIGVMIYANISLYLILLTMLISSLVIVYSHSKLHQKSAYQFRSLSNLLDAMVQGDYSLRARISDGDEALNELVDSINSLSLRLNKQRIETTESQLLLTTVINHIDVAILALNENNELVLTNPAAKKLLQIPAEQQEFDLIESFSQFSQIAAMNSGNSQVMSLYFANQQGKFNVHLEEYRENGKPQKLVFITDVSTMLRSEERNAWQALVRVISHEINNSLSPIASISQSLRRLLARQEKLENHKEYLVEGLSIISQRSNSLTEFVNSYKQIASLPEPKKQPSSVLELVNKTVALYPDECIEVQNIDDITLVLDAVQFEQVLINLVKNAVEAVKSAGEAGKVAISGQVNGKVFSLSLADDGTGVSNLENLFVPFYSTKSKGSGIGLVLCRQIIEAHGGKITLTNRLGVSGCIATIELPL | failed |
| MKQPTLAVIMTCHNRRNTTLACLQALYQQKNHFDVYLTDDGSTDGTAEFIKAEYPDVKIFQGDGNLFWVGGMHLAFGEAIKNQYDYYLWLNDDTFLEADALEKLLQVHENLAVEGYGQSIVVGSTQDPITKQATYGGAVKSKKWYSNKFEFLEPTSDVQKCDAMYGNCVLIPHSVTLKVGNIDTAFIHSLGDLDYALRARNLGLEHHHHHH | failed |
